Experimental data from US20240117018A1.

How the values were obtained:
Assay in all cases: cell-based or functional assay
[1] = biological target: HIV-1 Env of pseudovirus 1054_07_TC4_1499 (HIV-1)
[2] = biological target: HIV-1 Env of pseudovirus 1394C9G1(Rev-) (HIV-1)
[3] = biological target: HIV-1 Env of pseudovirus 246F C1G (HIV-1)
[4] = biological target: HIV-1 Env of pseudovirus 62357_14_D3_4589 (HIV-1)
[5] = biological target: HIV-1 Env of pseudovirus 6240_08_TA5_4622 (HIV-1)
[6] = biological target: HIV-1 Env of pseudovirus 6244_13_B5_4576 (HIV-1)
[7] = biological target: HIV-1 Env of pseudovirus 6535.3 (HIV-1)
[8] = biological target: HIV-1 Env of pseudovirus AC10.0.29 (HIV-1)
[9] = biological target: HIV-1 Env of pseudovirus CAAN5342.A2 (HIV-1)
[10] = biological target: HIV-1 Env of pseudovirus CAP210.2.00.E8 (HIV-1)
[11] = biological target: HIV-1 Env of pseudovirus CAP45.2.00.G3 (HIV-1)
[12] = biological target: HIV-1 Env of pseudovirus CNE30 (HIV-1)
[13] = biological target: HIV-1 Env of pseudovirus CNE52 (HIV-1)
[14] = biological target: HIV-1 Env of pseudovirus CNE8 (HIV-1)
[15] = biological target: HIV-1 Env of pseudovirus Ce0393_C3 (HIV-1)
[16] = biological target: HIV-1 Env of pseudovirus Ce0682_E4 (HIV-1)
[17] = biological target: HIV-1 Env of pseudovirus Ce1172_H1 (HIV-1)
[18] = biological target: HIV-1 Env of pseudovirus Ce2010_F5 (HIV-1)
[19] = biological target: HIV-1 Env of pseudovirus Ce703010054_2A2 (HIV-1)
[20] = biological target: HIV-1 Env of pseudovirus Ce704809221_1B3 (HIV-1)
[21] = biological target: HIV-1 Env of pseudovirus HIV-001428-2.42 (HIV-1)
[22] = biological target: HIV-1 Env of pseudovirus HIV-16055-2.3 (HIV-1)
[23] = biological target: HIV-1 Env of pseudovirus HIV-16845-2.22 (HIV-1)
[24] = biological target: HIV-1 Env of pseudovirus MS208.A1 (HIV-1)
[25] = biological target: HIV-1 Env of pseudovirus PVO.4 (HIV-1)
[26] = biological target: HIV-1 Env of pseudovirus Q23.17 (HIV-1)
[27] = biological target: HIV-1 Env of pseudovirus Q769.d22 (HIV-1)
[28] = biological target: HIV-1 Env of pseudovirus SC05_8C11_2344 (HIV-1)
[29] = biological target: HIV-1 Env of pseudovirus T250-4 (HIV-1)
[30] = biological target: HIV-1 Env of pseudovirus THRO4156.18 (HIV-1)
[31] = biological target: HIV-1 Env of pseudovirus TRJO4551.58 (HIV-1)
[32] = biological target: HIV-1 Env of pseudovirus TRO.11 (HIV-1)
[33] = biological target: HIV-1 Env of pseudovirus WITO4160.33 (HIV-1)
[34] = biological target: HIV-1 Env of pseudovirus ZM109F.PB4 (HIV-1)
[35] = biological target: HIV-1 Env of pseudovirus ZM135M.PL10a (HIV-1)
[36] = biological target: HIV-1 Env of pseudovirus ZM233M.PB6 (HIV-1)
[37] = biological target: HIV-1 Env of pseudovirus ZM247v1(Rev-) (HIV-1)

In the case of N49P7.1 (antibody), the IC50 [1] is reported as 0.627 µg/mL, the IC80 [1] is reported as 2.98 µg/mL and the MPI [1] is reported as 100. The IC50 [2] was 4.37 µg/mL, the IC80 [2] was 30.9 µg/mL and the MPI [2] was 88. The IC50 [3] was 0.049 µg/mL, the IC80 [3] was 0.165 µg/mL and the MPI [3] was 100. It also gave an IC50 [4] of 0.028 µg/mL, an IC80 [4] of 0.15 µg/mL and an MPI [4] of 100. It also gave an IC50 [5] of 0.509 µg/mL, an IC80 [5] of 1.95 µg/mL and an MPI [5] of 100. It also gave an IC50 [6] of 0.184 µg/mL, an IC80 [6] of 0.493 µg/mL and an MPI [6] of 100. It also gave an IC50 [7] of 0.224 µg/mL, an IC80 [7] of 0.715 µg/mL and an MPI [7] of 100. It also gave an IC50 [8] of 5.31 µg/mL, an IC80 [8] of 46.8 µg/mL and an MPI [8] of 85. For the same substance, the IC50 [9] was 0.55 µg/mL, the IC80 [9] was 1.59 µg/mL and the MPI [9] was 100. For the same substance, the IC50 [10] was 2.03 µg/mL, the IC80 [10] was 7.3 µg/mL and the MPI [10] was 99. For the same substance, the IC50 [11] was 0.086 µg/mL, the IC80 [11] was 0.567 µg/mL and the MPI [11] was 100. The IC50 [12] was 0.307 µg/mL, the IC80 [12] was 1.01 µg/mL and the MPI [12] was 100. The IC50 [13] was 0.021 µg/mL, the IC80 [13] was 0.058 µg/mL and the MPI [13] was 100. The IC50 [14] was 0.048 µg/mL, the IC80 [14] was 0.167 µg/mL and the MPI [14] was 100. For the same substance, the IC50 [15] was 0.23 µg/mL, the IC80 [15] was 1.02 µg/mL and the MPI [15] was 100. The IC50 [16] was 0.026 µg/mL, the IC80 [16] was 0.099 µg/mL and the MPI [16] was 100. For the same substance, the IC50 [17] was 17.1 µg/mL, the IC80 [17] was > 50 µg/mL and the MPI [17] was 78. It also gave an IC50 [18] of 0.055 µg/mL, an IC80 [18] of 0.208 µg/mL and an MPI [18] of 100. For the same substance, the IC50 [19] was 0.085 µg/mL, the IC80 [19] was 0.364 µg/mL and the MPI [19] was 100. The IC50 [20] was 0.211 µg/mL, the IC80 [20] was 1.35 µg/mL and the MPI [20] was 100. For the same substance, the IC50 [21] was 0.009 µg/mL, the IC80 [21] was 0.029 µg/mL and the MPI [21] was 100. It also gave an IC50 [22] of 0.088 µg/mL, an IC80 [22] of 0.318 µg/mL and an MPI [22] of 100. For the same substance, the IC50 [23] was 1.07 µg/mL, the IC80 [23] was 5.4 µg/mL and the MPI [23] was 100. It also gave an IC50 [24] of 0.12 µg/mL, an IC80 [24] of 0.431 µg/mL and an MPI [24] of 100. For the same substance, the IC50 [25] was 0.124 µg/mL, the IC80 [25] was 0.421 µg/mL and the MPI [25] was 100. For the same substance, the IC50 [26] was 0.077 µg/mL, the IC80 [26] was 0.208 µg/mL and the MPI [26] was 100. For the same substance, the IC50 [27] was 0.044 µg/mL, the IC80 [27] was 0.163 µg/mL and the MPI [27] was 100. For the same substance, the IC50 [28] was 0.189 µg/mL, the IC80 [28] was 0.688 µg/mL and the MPI [28] was 100. The IC50 [29] was 2.27 µg/mL, the IC80 [29] was 24.7 µg/mL and the MPI [29] was 89. The IC50 [30] was 3.07 µg/mL, the IC80 [30] was 12.6 µg/mL and the MPI [30] was 98. The IC50 [31] was 0.156 µg/mL, the IC80 [31] was 0.529 µg/mL and the MPI [31] was 100. The IC50 [32] was 0.055 µg/mL, the IC80 [32] was 0.191 µg/mL and the MPI [32] was 100. For the same substance, the IC50 [33] was 0.121 µg/mL, the IC80 [33] was 0.326 µg/mL and the MPI [33] was 100. For the same substance, the IC50 [34] was 0.055 µg/mL, the IC80 [34] was 0.199 µg/mL and the MPI [34] was 100. The IC50 [35] was 0.314 µg/mL, the IC80 [35] was 1.11 µg/mL and the MPI [35] was 99. The IC50 [36] was 0.355 µg/mL, the IC80 [36] was 1.25 µg/mL and the MPI [36] was 100. The IC50 [37] was 0.038 µg/mL, the IC80 [37] was 0.176 µg/mL and the MPI [37] was 100.
